According to paper PMC13600239:

Legend:
[1] = molecular target: Rmo2^HMA (integrated HMA domain of the barley tandem kinase protein Rmo2) (barley); experiment: ITC; […]; 25°C; 20 mM HEPES pH 7.5, 150 mM NaCl; triplicate, […]
Rwt7^HMA-6His (wheat) = experiment: as above

Row | Substance | Kd [1] [nM] | Kd (Rwt7^HMA-6His (wheat)) [nM]
1 | PBY2 (Magnaporthe oryzae effector) (natural protein) | 53.5 | –
2 | PWT7 (Magnaporthe oryzae effector) (natural protein) | – | 2.92
